Experiments:
Fcγ-receptor III (mice) = Fcγ-receptor III (mice) (UniProt P08508); assay: flow cytometry saturation binding on HeLa cells expressing RFP-tagged FcγRIII (FIG. 61C, right panel)
Fcγ-receptor IV (mice) = assay: flow cytometry saturation binding on HeLa cells expressing RFP-tagged FcγRIV (FIG. 61D, right panel)
Fcγ-receptor I (mice) = Fcγ-receptor I (mice) (UniProt P26151); assay: flow cytometry saturation binding on HeLa cells expressing RFP-tagged FcγRI (FIG. 61A, right panel)
Fcγ-receptor IIb (mice) = Fcγ-receptor IIb (mice) (UniProt P08101); assay: flow cytometry saturation binding on HeLa cells expressing RFP-tagged FcγRIIb (FIG. 61B, right panel)
Fcγ-receptor IIb (mice), sequence (P08101 30-330): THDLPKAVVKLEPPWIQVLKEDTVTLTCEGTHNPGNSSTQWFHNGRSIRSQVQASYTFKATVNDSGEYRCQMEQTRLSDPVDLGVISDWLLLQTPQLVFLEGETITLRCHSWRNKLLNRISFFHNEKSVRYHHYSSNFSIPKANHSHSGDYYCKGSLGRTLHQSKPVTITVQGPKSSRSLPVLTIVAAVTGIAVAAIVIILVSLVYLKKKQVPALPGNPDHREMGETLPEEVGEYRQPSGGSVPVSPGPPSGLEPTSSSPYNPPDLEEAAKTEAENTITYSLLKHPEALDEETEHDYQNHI

Fcγ-receptor IV (mice), sequence (A0A0B4J1G0 21-249): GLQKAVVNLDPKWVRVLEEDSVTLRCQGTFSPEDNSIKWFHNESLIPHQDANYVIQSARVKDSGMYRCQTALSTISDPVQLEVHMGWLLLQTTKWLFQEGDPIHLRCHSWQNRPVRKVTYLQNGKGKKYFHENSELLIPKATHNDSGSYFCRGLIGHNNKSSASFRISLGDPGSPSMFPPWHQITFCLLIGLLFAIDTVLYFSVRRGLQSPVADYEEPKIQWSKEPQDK
Fcγ-receptor III (mice), sequence (P08508 31-261): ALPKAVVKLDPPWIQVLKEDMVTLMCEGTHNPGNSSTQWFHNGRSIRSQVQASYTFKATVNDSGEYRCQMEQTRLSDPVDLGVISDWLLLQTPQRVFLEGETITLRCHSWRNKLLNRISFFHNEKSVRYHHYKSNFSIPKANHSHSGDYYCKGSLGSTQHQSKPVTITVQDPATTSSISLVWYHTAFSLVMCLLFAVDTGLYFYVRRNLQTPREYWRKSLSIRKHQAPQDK
Fcγ-receptor I (mice), sequence (P26151 25-404): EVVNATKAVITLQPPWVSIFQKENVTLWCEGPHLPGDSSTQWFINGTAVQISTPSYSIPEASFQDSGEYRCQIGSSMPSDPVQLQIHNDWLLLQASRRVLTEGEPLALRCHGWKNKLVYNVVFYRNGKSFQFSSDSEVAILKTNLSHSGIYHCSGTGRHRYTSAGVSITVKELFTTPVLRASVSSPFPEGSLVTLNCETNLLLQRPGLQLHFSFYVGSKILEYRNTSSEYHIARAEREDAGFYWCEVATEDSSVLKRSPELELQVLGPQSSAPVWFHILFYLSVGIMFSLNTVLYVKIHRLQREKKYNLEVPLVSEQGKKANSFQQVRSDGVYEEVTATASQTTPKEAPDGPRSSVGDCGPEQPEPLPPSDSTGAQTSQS

## whole rabbit IgG (antibody)
Fcγ-receptor III (mice)
  Kd: 2330 nM
Fcγ-receptor IV (mice)
  Kd: 1220 nM
Fcγ-receptor I (mice)
  Kd: 201 nM
Fcγ-receptor IIb (mice)
  Kd: 609 nM

From US20140294817A1
